Results: US20100323969 (published 2010)
Ends that are not written are not given here. * marks the point of attachment. Galloyl = O=C(c1cc(O)c(O)c(O)c1)*

T1: human P-selectin IgG-Fc chimera (human, UniProt P16109)
T1 chain: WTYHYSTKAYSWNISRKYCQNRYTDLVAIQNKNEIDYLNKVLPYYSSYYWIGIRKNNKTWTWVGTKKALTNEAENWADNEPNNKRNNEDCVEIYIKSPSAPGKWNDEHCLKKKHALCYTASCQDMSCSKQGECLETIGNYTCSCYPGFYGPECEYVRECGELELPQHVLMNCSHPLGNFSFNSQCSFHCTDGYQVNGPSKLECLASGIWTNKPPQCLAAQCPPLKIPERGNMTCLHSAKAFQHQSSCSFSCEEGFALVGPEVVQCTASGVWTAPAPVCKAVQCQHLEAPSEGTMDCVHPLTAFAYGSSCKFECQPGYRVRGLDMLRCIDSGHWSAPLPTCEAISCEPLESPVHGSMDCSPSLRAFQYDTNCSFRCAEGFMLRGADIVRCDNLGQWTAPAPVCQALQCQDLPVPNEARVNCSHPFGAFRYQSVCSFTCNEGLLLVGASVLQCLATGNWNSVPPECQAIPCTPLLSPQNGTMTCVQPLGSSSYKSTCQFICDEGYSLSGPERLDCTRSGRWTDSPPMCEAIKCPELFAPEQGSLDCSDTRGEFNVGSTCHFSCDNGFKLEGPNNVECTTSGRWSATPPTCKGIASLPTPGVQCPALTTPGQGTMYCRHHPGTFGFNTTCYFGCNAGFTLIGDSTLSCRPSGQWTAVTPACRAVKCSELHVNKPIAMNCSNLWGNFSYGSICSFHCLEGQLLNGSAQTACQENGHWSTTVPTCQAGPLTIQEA


Biological target: T1, human P-selectin IgG-Fc chimera
Assay: competition ELISA

Row | Binder | IC50
1 | KWVDV [A130] | 28 µM
2 | DWVDV [A129] | 16 µM
3 | Galloyl-WVDV [Compound 12 (GA-WVDV)] | 0.037 µM
4 | Galloyl-EWVDV [Compound 13 (GA-EWVDV)] | 0.031 µM

More lines, in order of falling IC50, values ahead:

Row | IC50 | Binder
5 | 27 µM | AWVDV [A131]
6 | 8 µM | EWVDV [A29]
7 | 2 µM | CDVEWVDVSSLEWDLPC [TM11]

Biological target: T1, human P-selectin IgG-Fc chimera
Assay: competition ELISA
Remark: another data set of the same source

Row | IC50 | Binder
8 | 0.0371 µM | Galloyl-WVDV [Compound 12 (GA-WVDV)]
